The values that follow come from the supplement of paper PMC9112550, “Optimization of the antimicrobial peptide Bac7 by deep mutational scanning” (BMC Biology, 2022).
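Further: peptides expressed intracellularly from a pBAD plasmid library in pooled LB shake-flask culture, induced with 0.3% L-arabinose, DNA abundance read by NGS, three biological replicates, DESeq2 with apeglm shrinkage.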

The test system of the series is Escherichia coli TOP10. The series can be described thus: shrunken log2 fold change of peptide-encoding DNA abundance (4.5 h post-induction vs induction); higher = less antimicrobial activity (less host growth inhibition). The conditions noted are these: time post-induction: 4.5 h; library: site-saturation at positions 5, 18, 19, 20.
As for RRIRMRPPRLPRPRPRPDMEPRP, the “shrunken log2 fold change” value came to 0.00931.
Regarding RRIRRRPPRLPRPRPRPCAIPRP, the “shrunken log2 fold change” value stood at 3.08.
Then RRIRKRPPRLPRPRPRPCFVPRP, with -0.0847; and RRIRRRPPRLPRPRPRPHSGPRP, with 0.0307; and RRIRYRPPRLPRPRPRPKRDPRP, with -0.0103.
Take RRIRTRPPRLPRPRPRPLHSPRP: the “shrunken log2 fold change” value was 0.186.
For RRIRIRPPRLPRPRPRPIYNPRP the value was -1.18; for RRIRRRPPRLPRPRPRPWMPPRP, -0.217.
As for RRIRHRPPRLPRPRPRPYCYPRP, the “shrunken log2 fold change” value is -0.577.
RRIRARPPRLPRPRPRPRKYPRP: the “shrunken log2 fold change” value is 0.0773.
Then RRIRHRPPRLPRPRPRPPARPRP, with 1.66; and RRIRQRPPRLPRPRPRPEDDPRP, with -0.14; and RRIRQRPPRLPRPRPRPSCSPRP, with -0.111.
Then RRIRFRPPRLPRPRPRPGCRPRP, with 0.00327; and RRIRKRPPRLPRPRPRPGYHPRP, with 0.0924; and RRIRPRPPRLPRPRPRPYCMPRP, with -0.505.
Then RRIRSRPPRLPRPRPRPLGSPRP, with 0.193; and RRIRKRPPRLPRPRPRPPCVPRP, with 0.443; and RRIRIRPPRLPRPRPRPWWAPRP, with -0.255.
For RRIRNRPPRLPRPRPRPAHIPRP, the “shrunken log2 fold change” value came to 0.00258.
As for RRIRFRPPRLPRPRPRPADSPRP, the “shrunken log2 fold change” value is -0.187.
Consider RRIRWRPPRLPRPRPRPCKAPRP, for which the “shrunken log2 fold change” value was -0.0863.
For RRIRCRPPRLPRPRPRPPMEPRP the value was 0.245; for RRIRDRPPRLPRPRPRPEITPRP, 0.0482.
Turning to RRIRYRPPRLPRPRPRPASFPRP, the “shrunken log2 fold change” value was -0.138.
For RRIRVRPPRLPRPRPRPYPQPRP the value was -0.349; for RRIRWRPPRLPRPRPRPLSCPRP, 0.154.
Then RRIRQRPPRLPRPRPRPSYMPRP, with -0.301.
For RRIRCRPPRLPRPRPRPGDCPRP the value was 0.0297; for RRIRHRPPRLPRPRPRPDCSPRP, -0.284.
For the sequence RRIRPRPPRLPRPRPRPGLLPRP, the “shrunken log2 fold change” value is 0.217.
For RRIRTRPPRLPRPRPRPTNTPRP the value was -0.536; for RRIRCRPPRLPRPRPRPDSFPRP, 0.211.
Then RRIRMRPPRLPRPRPRPAGSPRP, with 0.2; and RRIRARPPRLPRPRPRPEMWPRP, with 1.21.
Then RRIRRRPPRLPRPRPRPTMPPRP, with 0.438; and RRIRERPPRLPRPRPRPTQEPRP, with 0.0237.
As for RRIRTRPPRLPRPRPRPDKFPRP, the “shrunken log2 fold change” value was 0.116.
On to RRIRFRPPRLPRPRPRPNFHPRP, for which the “shrunken log2 fold change” value is -0.218.
For RRIRERPPRLPRPRPRPLRHPRP the value was 0.11; for RRIRQRPPRLPRPRPRPQLDPRP, 0.188; for RRIRIRPPRLPRPRPRPVKWPRP, -0.0064.
For RRIRARPPRLPRPRPRPHPFPRP the value was 0.0322.
As to RRIRHRPPRLPRPRPRPMAKPRP, the “shrunken log2 fold change” value is -0.124.
For RRIRGRPPRLPRPRPRPRHGPRP the value was 0.264.
Then RRIRLRPPRLPRPRPRPSRFPRP, with -0.211; and RRIRYRPPRLPRPRPRPKLGPRP, with -0.0974.
Then RRIRLRPPRLPRPRPRPAHCPRP, with 0.0914.
With RRIRVRPPRLPRPRPRPKESPRP, the “shrunken log2 fold change” value is -0.0206.
As to RRIRTRPPRLPRPRPRPQISPRP, the “shrunken log2 fold change” value is -0.024.
Then RRIRERPPRLPRPRPRPHTEPRP, with -0.239.
For RRIRCRPPRLPRPRPRPTYIPRP the value was -0.959.
Turning to RRIRDRPPRLPRPRPRPNVRPRP, the “shrunken log2 fold change” value is -0.275.
Then RRIRTRPPRLPRPRPRPPDEPRP, with 0.0184; and RRIRGRPPRLPRPRPRPMAIPRP, with 0.0503; and RRIRYRPPRLPRPRPRPAFEPRP, with -0.0224.
For RRIRYRPPRLPRPRPRPHHRPRP the value was -0.306.
Then RRIRPRPPRLPRPRPRPERRPRP, with 0.158.
For RRIRQRPPRLPRPRPRPECKPRP, the “shrunken log2 fold change” value was -0.0182.
Then RRIRKRPPRLPRPRPRPTAMPRP, with 0.358.
With RRIRTRPPRLPRPRPRPIFQPRP, the “shrunken log2 fold change” value is -0.192.
As to RRIRGRPPRLPRPRPRPRNFPRP, the “shrunken log2 fold change” value amounted to 0.197.
For RRIRHRPPRLPRPRPRPDFDPRP the value was 0.0484.
For RRIRSRPPRLPRPRPRPLWHPRP the value was -0.289; for RRIRLRPPRLPRPRPRPALNPRP, -0.0159; for RRIRNRPPRLPRPRPRPYGQPRP, -0.124.
As for RRIRGRPPRLPRPRPRPRQIPRP, the “shrunken log2 fold change” value was 0.684.
Then RRIRERPPRLPRPRPRPLGGPRP, with -0.073.
Then RRIRARPPRLPRPRPRPTGSPRP, with 0.841; and RRIRPRPPRLPRPRPRPIKSPRP, with -0.0993; and RRIRKRPPRLPRPRPRPQTQPRP, with 0.26.
Regarding RRIRCRPPRLPRPRPRPLITPRP, the “shrunken log2 fold change” value is -0.125.
For RRIRSRPPRLPRPRPRPFGCPRP, the “shrunken log2 fold change” value came out at 0.029.
For the sequence RRIRMRPPRLPRPRPRPIQWPRP, the “shrunken log2 fold change” value was determined as 0.144.
For RRIRERPPRLPRPRPRPPTQPRP the value was 0.159; for RRIRIRPPRLPRPRPRPIRPPRP, -0.277; for RRIRHRPPRLPRPRPRPCTKPRP, 0.0647.
Consider RRIRCRPPRLPRPRPRPWFSPRP, for which the “shrunken log2 fold change” value is -0.208.
Then RRIRGRPPRLPRPRPRPISVPRP, with -0.0351.
Then RRIRYRPPRLPRPRPRPKWIPRP, with -0.863.
Turning to RRIRDRPPRLPRPRPRPIQFPRP, the “shrunken log2 fold change” value was -0.177.
Then RRIRYRPPRLPRPRPRPSWGPRP, with -0.154.
For RRIRGRPPRLPRPRPRPLRQPRP the value was 0.62; for RRIRRRPPRLPRPRPRPLKIPRP, -0.0377; for RRIRHRPPRLPRPRPRPGDRPRP, 2.17.
Then RRIRQRPPRLPRPRPRPDYLPRP, with -0.212.
For RRIRSRPPRLPRPRPRPDWIPRP, the “shrunken log2 fold change” value was -0.337.
Then RRIRGRPPRLPRPRPRPFQWPRP, with -0.0859.
Then RRIRWRPPRLPRPRPRPPMDPRP, with 0.0637.
For RRIRERPPRLPRPRPRPIPWPRP the value was -0.345.
For the sequence RRIRDRPPRLPRPRPRPKVSPRP, the “shrunken log2 fold change” value came out at 0.036.
With RRIRIRPPRLPRPRPRPPQFPRP, the “shrunken log2 fold change” value was -0.195.
For RRIRLRPPRLPRPRPRPELLPRP the value was 0.335; for RRIRYRPPRLPRPRPRPRRSPRP, -0.0446.
With RRIRGRPPRLPRPRPRPESAPRP, the “shrunken log2 fold change” value was 1.67.
Then RRIRKRPPRLPRPRPRPRHTPRP, with 0.328; and RRIRGRPPRLPRPRPRPNCLPRP, with 0.191.
Then RRIRQRPPRLPRPRPRPMVPPRP, with -0.0191.
Take RRIRERPPRLPRPRPRPFYRPRP: the “shrunken log2 fold change” value was -0.111.
Then RRIRHRPPRLPRPRPRPNFVPRP, with -0.0788.
Then RRIRIRPPRLPRPRPRPDSNPRP, with -0.168.
Turning to RRIRGRPPRLPRPRPRPNQFPRP, the “shrunken log2 fold change” value was 0.0521.
